# Data from paper PMC6554060 (Journal of molecular biology, 2019).
# B1: E234G/H363A-HYPE (enzyme)
# chain: GKLEARAALNQALEMKRQGKREKAQKLFMHALKMDPDFVDALTEFGIFSEEDKDIIQADYLYTRALTISPYHEKALVNRDRTLPLVEEIDQRYFSIIDSKVKKVMSIPKGNSALRRVMEETYYHHIYHTVAIGGNTLTLSEIRHILETRYAVPGKSLEEQNEVIGMHAAMKYINTTLVSRIGSVTISDVLEIHRRVLGYVDPVEAGRFRTTQVLVGHHIPPHPQDVEKQMQEFVQWLNSEEAMNLHPVEFAALAHYKLVYIAPFIDGNGRTSRLLMNLILMQAGYPPITIRKEQRSDYYHVLEAANEGDVRPFIRFIAKCTETTLDTLLFATTEYSVALPEAQPNHSGFKETLPVKP
# Molecular target: His6-tagged WT-αSyn (human, UniProt P37840 1-140)
# Experiment: BLI
binder,measurement,value
B1,Kd,15.3 µM
